Data published in patent US20100055715A1 (published 2010).

Target: T1, Mycobacterium proteasomal ATPase (Mpa), untagged recombinant (Mycobacterium tuberculosis, UniProt P9WQN5 1-609)
T1 sequence: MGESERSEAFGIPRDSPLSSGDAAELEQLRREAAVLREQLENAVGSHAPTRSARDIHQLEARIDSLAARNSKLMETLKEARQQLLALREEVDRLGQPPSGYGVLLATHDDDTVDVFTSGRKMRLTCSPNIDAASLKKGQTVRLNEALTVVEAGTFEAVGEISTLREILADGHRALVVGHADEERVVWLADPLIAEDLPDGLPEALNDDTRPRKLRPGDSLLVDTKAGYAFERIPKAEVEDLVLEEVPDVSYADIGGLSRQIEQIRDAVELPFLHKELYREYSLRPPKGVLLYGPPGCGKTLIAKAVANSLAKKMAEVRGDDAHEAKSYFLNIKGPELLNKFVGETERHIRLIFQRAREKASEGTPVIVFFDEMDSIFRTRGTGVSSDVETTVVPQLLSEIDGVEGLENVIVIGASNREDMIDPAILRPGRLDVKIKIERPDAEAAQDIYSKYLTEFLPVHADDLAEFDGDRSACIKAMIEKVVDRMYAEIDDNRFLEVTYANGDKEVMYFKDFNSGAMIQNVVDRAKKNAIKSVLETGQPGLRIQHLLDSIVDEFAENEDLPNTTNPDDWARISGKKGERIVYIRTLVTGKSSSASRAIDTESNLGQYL
Assay: Ni-NTA agarose pull-down, Coomassie gel and anti-Mpa immunoblot

B1: [change] (other)
chain: MAQEQTKRGGGGGDDDDIAGSTAAGQERREKLTEETDDLLDEIDDVLEENAEDFVRAYVQKGGQ
binding result: binds
